From publication PMC5131612 (Journal of Structural Biology, 2016) come the findings set out here.

The target in experiment [1] is T1, His-USP1 (21-785) (human, UniProt O94782 21-785).
T1 sequence (looked up): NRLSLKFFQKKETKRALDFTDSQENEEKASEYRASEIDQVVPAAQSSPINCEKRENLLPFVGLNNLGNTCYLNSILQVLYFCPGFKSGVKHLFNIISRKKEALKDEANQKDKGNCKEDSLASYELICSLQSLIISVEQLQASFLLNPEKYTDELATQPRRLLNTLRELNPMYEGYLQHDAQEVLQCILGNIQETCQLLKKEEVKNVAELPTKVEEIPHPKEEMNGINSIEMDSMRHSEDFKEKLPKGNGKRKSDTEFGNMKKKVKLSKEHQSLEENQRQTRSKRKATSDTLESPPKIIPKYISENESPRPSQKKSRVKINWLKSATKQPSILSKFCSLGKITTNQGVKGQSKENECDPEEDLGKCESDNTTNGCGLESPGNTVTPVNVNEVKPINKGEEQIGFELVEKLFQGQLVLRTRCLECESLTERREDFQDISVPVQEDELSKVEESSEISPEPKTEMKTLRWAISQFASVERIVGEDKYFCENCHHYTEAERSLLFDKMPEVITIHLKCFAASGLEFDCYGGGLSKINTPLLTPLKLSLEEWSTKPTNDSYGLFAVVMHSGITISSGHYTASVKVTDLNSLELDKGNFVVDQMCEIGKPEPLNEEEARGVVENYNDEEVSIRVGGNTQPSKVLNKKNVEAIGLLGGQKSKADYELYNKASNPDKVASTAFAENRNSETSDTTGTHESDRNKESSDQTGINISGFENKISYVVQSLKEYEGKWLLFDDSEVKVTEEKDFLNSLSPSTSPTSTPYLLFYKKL
The experiment in a line: SEC-MALS.

Experiment [2] deals with GST-USP12WT (24-370) (human, UniProt O75317 24-370). As to the kind of experiment: SPR. (In general: SPR reads the build-up and loss of mass on a sensor chip optically.)
GST-USP12WT (24-370), sequence (O75317 24-370): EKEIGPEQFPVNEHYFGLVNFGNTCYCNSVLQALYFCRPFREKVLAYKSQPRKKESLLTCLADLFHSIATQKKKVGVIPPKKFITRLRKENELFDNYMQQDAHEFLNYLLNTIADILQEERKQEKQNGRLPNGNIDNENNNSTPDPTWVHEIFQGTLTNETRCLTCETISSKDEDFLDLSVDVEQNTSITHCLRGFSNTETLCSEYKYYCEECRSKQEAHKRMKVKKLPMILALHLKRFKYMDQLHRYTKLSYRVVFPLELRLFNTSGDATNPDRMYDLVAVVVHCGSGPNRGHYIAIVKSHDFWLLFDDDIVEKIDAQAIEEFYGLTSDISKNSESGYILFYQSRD

B1: UAF1FL, UAF1 (9-677) (natural protein)
chain: not shown
The term stoichiometry N denotes the number of molecules, sites or subunits per partner or assembly. On to B1, for which the “stoichiometry N” value in experiment [1] stood at 2 UAF1 per USP1. Besides, the “Kd of the second binding event” value in experiment [2] worked out at 325 nM.
